Measured values from patent publication US20260275280A1, “DIRECTED DIFFERENTIATION PROTOCOLS TO DERIVE BONE FIDE SPINAL SENSORY INTERNEURONS” (THE REGENTS OF THE UNIVERSITY OF CALIFORNIA, priority 2022, published 2026).
Entries after “also recorded” stand apart in the source; their conditions may differ.

B1: Wnt9b: mouse recombinant Wnt9b, non-canonical Wnt ligand (protein, UniProt O35468 24-359, looked up)
Protein Wnt-9b: AAYFGLTGREVLTPFPGLGTAAAPAQAGAHLKQCDLLKLSRRQKQLCRREPGLAETLRDAAHLGLLECQFQFRQERWNCSLEGRTGLLQRGFKETAFLYAVSAAALTHALARACSAGRMERCTCDDSPGLESRQAWQWGVCGDNLKYSTKFLSNFLGPKRGSKDLRARADAHNTHVGIKAVKSGLRTTCKCHGVSGSCAVRTCWKQLSPFRETGQVLKLRYDTAVKVSSATNEALGRLELWAPAKPGGPAKGLAPRPGDLVYMEDSPSFCRPSKYSPGTAGRVCSRDSSCSSLCCGRGYDTQSRMVVFSCHCQVQWCCYVECQQCAQQELVYTCKR
B2: Wnt3a: human recombinant Wnt3a, canonical Wnt (protein, UniProt P56704 19-352, looked up)
Protein Wnt-3a: SYPIWWSLAVGPQYSSLGSQPILCASIPGLVPKQLRFCRNYVEIMPSVAEGIKIGIQECQHQFRGRRWNCTTVHDSLAIFGPVLDKATRESAFVHAIASAGVAFAVTRSCAEGTAAICGCSSRHQGSPGKGWKWGGCSEDIEFGGMVSREFADARENRPDARSAMNRHNNEAGRQAIASHMHLKCKCHGLSGSCEVKTCWWSQPDFRAIGDFLKDKYDSASEMVVEKHRESRGWVETLRPRYTYFKVPTERDLVYYEASPNFCEPNPETGSFGTRDRTCNVSSHGIDGCDLLCCGRGHNARAERRREKCRCVFHWCCYVSCQECTRVYDVHTCK
B3: Wnt2: human recombinant Wnt2, canonical Wnt (protein, UniProt P09544 26-360, looked up)
Protein Wnt-2: SWWYMRATGGSSRVMCDNVPGLVSSQRQLCHRHPDVMRAISQGVAEWTAECQHQFRQHRWNCNTLDRDHSLFGRVLLRSSRESAFVYAISSAGVVFAITRACSQGEVKSCSCDPKKMGSAKDSKGIFDWGGCSDNIDYGIKFARAFVDAKERKGKDARALMNLHNNRAGRKAVKRFLKQECKCHGVSGSCTLRTCWLAMADFRKTGDYLWRKYNGAIQVVMNQDGTGFTVANERFKKPTKNDLVYFENSPDYCIRDREAGSLGTAGRVCNLTSRGMDSCEVMCCGRGYDTSHVTRMTKCGCKFHWCCAVRCQDCLEALDVHTCKAPKNADWTTAT
B4: Wnt1: human recombinant Wnt1, canonical Wnt (protein, UniProt P04628 28-370, looked up)
Proto-oncogene Wnt-1: ANSSGRWWGIVNVASSTNLLTDSKSLQLVLEPSLQLLSRKQRRLIRQNPGILHSVSGGLQSAVRECKWQFRNRRWNCPTAPGPHLFGKIVNRGCRETAFIFAITSAGVTHSVARSCSEGSIESCTCDYRRRGPGGPDWHWGGCSDNIDFGRLFGREFVDSGEKGRDLRFLMNLHNNEAGRTTVFSEMRQECKCHGMSGSCTVRTCWMRLPTLRAVGDVLRDRFDGASRVLYGNRGSNRASRAELLRLEPEDPAHKPPSPHDLVYFEKSPNFCTYSGRLGTAGTAGRACNSSSPALDGCELLCCGRGHRTRTQRVTERCNCTFHWCCHVSCRNCTHTRVLHECL
B5: Wnt4: mouse recombinant Wnt4 (protein, UniProt P22724 23-351, looked up)
Protein Wnt-4: SNWLYLAKLSSVGSISEEETCEKLKGLIQRQVQMCKRNLEVMDSVRRGAQLAIEECQYQFRNRRWNCSTLDSLPVFGKVVTQGTREAAFVYAISSAGVAFAVTRACSSGELEKCGCDRTVHGVSPQGFQWSGCSDNIAYGVAFSQSFVDVRERSKGASSSRALMNLHNNEAGRKAILTHMRVECKCHGVSGSCEVKTCWRAVPPFRQVGHALKEKFDGATEVEPRRVGSSRALVPRNAQFKPHTDEDLVYLEPSPDFCEQDIRSGVLGTRGRTCNKTSKAIDGCELLCCGRGFHTAQVELAERCGCRFHWCCFVKCRQCQRLVEMHTCR

Legend:
Format in all cases: cell-based, mouse
[1] = tested on: mESCs-derived NMPs / NPCs; test: Bulk RNA-Seq differential expression and qRT-PCR after RA or RA+BMP4 treatment; conditions: AGN193109 added in 10 molar excess with the RA
Description: Bulk-RNA sequencing and data processing: Total cell lysate was obtained in buffer RLT (Qiagen) at different time points from three independent differentiations (biological replicates) conducted parallelly. RNA extraction was performed using RNeasy mini kit (Qiagen) and the quality was determined using Agilent Technologies 2100 Bioanalyzer and only samples with a RIN score >8.0 were sequenced. Stranded libraries were constructed using Universal plus mRNA sequencing kit (NuGEN) and sequenced onto 2 lanes of NovaseqS1 to generate 30 million reads/sample. Obtained reads were aligned to the latest mouse reference genome (mm10) using the STAR spliced read aligner. Pearson correlation and principal component analysis (PCA) was performed to determine the similarities among the samples and replicates. Differentially expressed genes were identified using DESeq and EdgeR package on R platform. The candidate genes were selected using cutoff false discovery rate (FDR <0.05) and log fold change (>2). Differentially expressed gene lists were further subjected to Enrichr, Metascape (Zhou et al., 2019) and DAVID functional annotation tools to identify enriched gene ontology (GO) categories.
(§1) Quantitative (a) RT-PCR analysis: RNA was isolated with RNeasy Mini Kit (Qiagen, cat no. 74104), and converted to cDNA using Superscript IV First Strand Synthesis kit (Thermo Fisher Scientific). qRT-PCR was performed using SYBR Green PCR Master Mix (Applied Biosystems) on Roche 480 Lightcycler (Roche). The relative fold expression was calculated using 2-AACt method of comparing the expression of the target gene with that of the housekeeping gene glyceraldehyde 3-phosphate dehydrogenase (Gapdh). All experiments were repeated at least 2-3 times (technical replicates) from at least two independent differentiations (biological replicates), and data is represented as mean±SEM.
We took advantage of the directed differentiation protocols to investigate the unresolved mechanisms by which RA and BMP direct dI fate specification. To further validate the use of a stem cell model, we first assessed the genetic basis of the fate decisions mediated by RA signaling. During the 24 hr pulse of RA at day 3, Pax3 levels gradually increase, while T expression concomitantly declines (FIG. 12A). […] To identify the transcriptional changes occurring during this first commitment step, we performed bulk RNA-Seq at day 3 (NMP state), day 3.25 (early transcriptional response to RA) and day 4 (dP state1) (FIG. 11B).
We hypothesized that the addition of BMP4 to NPCs in dP state1, directs them to a more dorsal dP state, i.e. dP state2 (FIG. 11A). To define the transcriptional changes occurring after BMP4 addition, we performed bulk RNA-Seq at day 4 (dP state1), day 4.25 (early transcriptional response to RA+BMP4) and at day 5 (dP state2) (FIG. 4A). […] 78 genes, out of 411, were common between both time points (FIGS. 4B, 13B). Focusing on these common genes, we identified enriched functional processes using GO analyses. The GO terms included the BMP signaling pathway (FIG. 4C, Table 3), confirming that the analysis identified BMP responsive genes.

Wnt/β-catenin signaling = test: Inhibition of Wnt/β-catenin signaling during dI differentiation (IHC and RT-qPCR at day 9)
Description: (§2) The mouse ESC line, MM13, was routinely maintained in ES cell media (DMEM+20% FBS) with 100u/ml of mouse leukocyte inducing factor (LIF). […] To prepare cells for the differentiation, ESC colonies were dissociated with 0.25% trypsin and plated on gelatin coated plates at 1:10 dilution to reduce MEF transfer. Cells cultured on gelatin coated plates and allowed to proliferate for 1-2 days. To initiate differentiation, cells were plated on 0.1% gelatin coated 24-well CellBIND dishes (Corning) at 20,000 cells/ml density in 0.5 ml/well N2/B27 medium that contains 10 ng/ml basic fibroblast growth factor (bFGF). The N2/B27 medium contains 1:1 portions of Advanced Dulbecco's modified Eagle Media (DMEM) F12 (Hyclone) and Neurobasal media (Thermo Fisher Scientific) supplemented with 0.5×N2, 1×B27 supplement (with Vitamin A), 2 mM L-glutamine, 0.1 mM 2-mercaptoethanol (ME), and 1% BSA. On day 1, small colonies of cells can be observed attached to the bottom of the wells. On day 2, cells were supplemented with 10 ng/ml bFGF and 5 μM CHIR99021 for 24 hours to induce a neuromesodermal identity (Gouti et al., 2014). On day 3, media was changed as follows: for protocol 1, cells were exposed to 100 nM RA for 48 hrs. For protocol 2, 10 ng/ml human recombinant BMP4 (Thermo Fisher Scientific) was added concomitantly with 100 nM RA (RA+BMP4) for 48 hrs. For protocol 3, cells were exposed to 100 nM RA for 24 hrs, followed by a pulse of RA+BMP4 for another 24 hours. To induce terminal differentiation in all three conditions, the medium containing growth factors was replaced with basic N2/B27 medium at day 5, and cell allowed to differentiate to day 9. At the end of the differentiation, the cultures were fixed for immunohistochemical analysis or lysed to obtain RNA for RNA-Seq or quantitative reverse transcriptase PCR analysis.
Immunohistochemistry: For 2d differentiations, adherent cultures were first washed with 1×PBS and fixed with fresh cold 4% PFA for 10 minutes in the well. Following fixation, cultures were washed twice with 1×PBS to remove any remaining PFA. Cells were blocked with 1×PBS with 1% heat inactivated horse serum for 1 hour and primary antibodies are added in the blocking solution for an overnight incubation at 4C. Following washes, species appropriate secondary antibodies (Jackson Immuno Research Laboratories) were added in 1× PBT (PBS+0.1% […]) for 1 hr. The cultures were then washed with 1× PBT to remove traces of secondary antibodies and counterstained with DAPI to stain nuclei. Plates were then imaged on Zeiss LSM800 inverted confocal microscope at 10× magnification.
as §1
To assess the role of canonical Wnt signaling in dI fate specification, we added endo-IWR1 (IWR1e), a small molecule inhibitor which blocks p-catenin function (Chen et al., 2009) to dPs from day 4-6 (FIG. 5A). By day 9, the RA+BMP4 condition robustly induces dlis-dI3s (FIG. 5F-51, 5N-5P).

[2] = tested on: mESCs derived spinal NPCs; test: Sufficiency of Wnt ligands or CHIR for dI fates (RT-qPCR at day 9); conditions: for identity of the BMP4-mediated dI fates (Lhx2, Foxd3, IsI2): RA+BMP4 protocol, Wnts 100 ng/ml or CHIR 5 μM for 24 hrs at day 5; for induction of BMP4 dependent dI fates (Lhx2, Foxd3, IsI1): added with RA at day 4 for 24 hrs, Wnts 100 ng/ml, CHIR 5 μM
Description: as §2, §1
We assessed these models, first by determining the effect of canonical Wnts (Wnt1, Wnt2, and Wnt3a), a non-canonical Wnt (Wnt9b) and a small molecule Wnt agonist (CHIR99021) on dI identity in the RA±BMP4 protocols. When Wnts were added in combination with RA, they were unable to induce the dorsal-most dIs by day 9 (FIG. 14A). […] Thus, Wnts are not sufficient to direct dI fate identity.

[3] = inhibitor added to RA+BMP4 (protocol 3) from day 4, 48 hours, day 9

Molecule	identity of the BMP4-mediated dI fates (Lhx2, Foxd3, IsI2) [2]	induction of BMP4 dependent dI fates (Lhx2, Foxd3, IsI1) [2]	further results
Cc1ccc(C2=CCC(C)(C)c3ccc(C#Cc4ccc(C(=O)O)cc4)cc32)cc1 [AGN193109]	–	–	upregulation of the RA-induced genes [1]: not upregulated
O=C(Nc1cccc2cccnc12)c1ccc(N2C(=O)[C@@H]3[C@H](C2=O)[C@@H]2C=C[C@H]3C2)cc1 [IWR1e]	–	–	dI1 and dI2 differentiation (Wnt/β-catenin signaling; [3]): loss of dI1s and dI2s; also recorded: dramatic reduction in the dI1 and dI2 populations; also recorded: most strongly suppresses the differentiation of the BMP4-dependent dI1/dI2s; dI3 differentiation (Wnt/β-catenin signaling; [3]): dI3 differentiation was less affected; also recorded: modest increase in dI3s; also recorded: more modest effect on dI3s; dI4, dI5, dI6 fates (Wnt/β-catenin signaling; [3]): no suppression of Pax2+dI4/dI6 and Lmx1b+dI5 fates; also recorded: concomitant increases in dI4, dI5 and dI6s; also recorded: increase in the expression of dI4-dI6 specific genes; dP markers Pax3, Pax7, Olig3 (Wnt/β-catenin signaling; inhibitor added to RA+BMP4 condition): did not erode Pax3+pan-dorsal identity or Pax7 expression, but nevertheless did suppress Olig3; also recorded: prevents both the suppression of Pax7+dPs and induction of Olig3+dPs
B1	no significant effect	neither canonical Wnts (Wnt1, Wnt2, Wnt3a, Wnt4, all at 100 ng/ml) nor a non-canonical Wnt ligand (Wnt9b) induce the BMP4 dependent dI fates	–
B2	no significant effect	neither canonical Wnts (Wnt1, Wnt2, Wnt3a, Wnt4, all at 100 ng/ml) nor a non-canonical Wnt ligand (Wnt9b) induce the BMP4 dependent dI fates	–
B3	no significant effect	neither canonical Wnts (Wnt1, Wnt2, Wnt3a, Wnt4, all at 100 ng/ml) nor a non-canonical Wnt ligand (Wnt9b) induce the BMP4 dependent dI fates	–
B4	no significant effect	neither canonical Wnts (Wnt1, Wnt2, Wnt3a, Wnt4, all at 100 ng/ml) nor a non-canonical Wnt ligand (Wnt9b) induce the BMP4 dependent dI fates	–
B5	no significant effect	neither canonical Wnts (Wnt1, Wnt2, Wnt3a, Wnt4, all at 100 ng/ml) nor a non-canonical Wnt ligand (Wnt9b) induce the BMP4 dependent dI fates	–
